Results reported in the supplement of paper PMC12042874.
± gives the uncertainty stated by the source.

experiment: amyloid nucleation score (Sup35N fusion, yeast selection) (log enrichment); library NNK1; higher = more nucleation; inactive = no reads after selection
Summary of the method: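 Peptides of 20 random codons, each fused to Sup35N, were expressed in psi-negative yeast. Cells were induced with 100 μM copper sulfate for 24 hours and grown 7 days at 30°C on medium lacking adenine and uracil, and plasmid inserts before and after selection were Illumina-sequenced. Nucleation scores are DiMSum log enrichments of output over input reads, centred on the mode score of non-aggregating sequences, and sequences under 100 input reads were excluded.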

Question: Which amyloid nucleation score does the source give for DGFMCFLYKLASQT here?
Answer: 0.158 ± 0.78

Question: With DGLLSIEYMNVYSSS as the substance, how does the amyloid nucleation score read?
Answer: 0.326 ± 0.77

Question: For DGNLKSR, which amyloid nucleation score is on record?
Answer: 0.644 ± 0.78

Question: With DGSCKLYVVFRPAVLGHGHS as the substance, how does the amyloid nucleation score read?
Answer: 1.05 ± 0.85

Question: For DGSGRGRALTVTIDWAVQLV, which amyloid nucleation score is on record?
Answer: 0.26 ± 0.88

Question: Which amyloid nucleation score does the source give for DGSVGFLMLEVCLWHSFLAC here?
Answer: inactive

Question: With DGVRTDLVILFWQCDHYEL as the substance, how does the amyloid nucleation score read?
Answer: -0.516 ± 0.43

Question: For DGYFQFKFYCTEMGMLFCFF, which amyloid nucleation score is on record?
Answer: -1.24 ± 0.56

Question: Which amyloid nucleation score does the source give for DGYGLIFW here?
Answer: -0.268 ± 0.47

Question: With DHFKKILGLCKSGCRVVERE as the substance, how does the amyloid nucleation score read?
Answer: 0.759 ± 0.41

Question: With DHLYLMV as the substance, how does the amyloid nucleation score read?
Answer: 1.04 ± 0.72

Question: Which amyloid nucleation score does the source give for DIATCRIWTVCTCQMCFISV here?
Answer: 6.17 ± 0.089

Question: Which amyloid nucleation score does the source give for DIDFLLNLCESNLIFANM here?
Answer: -0.887 ± 0.87

Question: Which amyloid nucleation score does the source give for DIERMKVPELFCLLSLDTGP here?
Answer: -0.376 ± 1.7

Question: Which amyloid nucleation score does the source give for DIFSA here?
Answer: 1.49 ± 0.43

Question: For DIKCLLR, which amyloid nucleation score is on record?
Answer: 0.238 ± 0.36

Question: Which amyloid nucleation score does the source give for DIVDARFTLTGFKFECVR here?
Answer: 0.297 ± 0.28

Question: For DKCCKLSRD, which amyloid nucleation score is on record?
Answer: 0.972 ± 0.58

Question: For DKLDSLIRVLNRLDNL, which amyloid nucleation score is on record?
Answer: -0.316 ± 0.4

Question: Which amyloid nucleation score does the source give for DKLSNVFLFLTDGCLNFNSF here?
Answer: 3.1 ± 0.11

Question: For DKPIV, which amyloid nucleation score is on record?
Answer: -0.09 ± 0.88

Question: For DKRKVRFAVMFNWRRELRY, which amyloid nucleation score is on record?
Answer: 0.708 ± 0.7

Question: Which amyloid nucleation score does the source give for DKWRVRCCRFWLT here?
Answer: 0.191 ± 0.29

Question: With DLAWWMSCAHFMSMTRGLQR as the substance, how does the amyloid nucleation score read?
Answer: 0.595 ± 0.36

Question: For DLGNLFLGISVKCI, which amyloid nucleation score is on record?
Answer: 0.961 ± 0.53

Question: Which amyloid nucleation score does the source give for DLIYTDGLV here?
Answer: -0.743 ± 0.24

Question: For DLLDLIQISDSLKILNALPE, which amyloid nucleation score is on record?
Answer: 0.845 ± 0.18

Question: For DLNLFDRNHVELRMIVD, which amyloid nucleation score is on record?
Answer: 0.726 ± 0.65

Question: With DLQCVAKVHESVGLGHHVHE as the substance, how does the amyloid nucleation score read?
Answer: 0.659 ± 0.5

Question: For DLVCDFYVGLV, which amyloid nucleation score is on record?
Answer: 2.42 ± 0.085

Question: Which amyloid nucleation score does the source give for DLYFIKDSTLCTISLFLIYW here?
Answer: 0.324 ± 1.2

Question: With DLYKSVPKHNQSNMSDSTES as the substance, how does the amyloid nucleation score read?
Answer: -0.631 ± 0.6

Question: Which amyloid nucleation score does the source give for DMKNDYLHVGFWVLIGWHYL here?
Answer: 0.743 ± 0.37

Question: For DMKNYVPVLLGNTMIMLWGL, which amyloid nucleation score is on record?
Answer: 3.08 ± 0.085

Question: Which amyloid nucleation score does the source give for DMLRMVRYTVWVSRVRSHGW here?
Answer: 3.07 ± 0.079

Question: For DMLSEIFGSSPNEYAPH, which amyloid nucleation score is on record?
Answer: 0.521 ± 0.29

Question: For DNDYDLDPVGIRVHLFNQ, which amyloid nucleation score is on record?
Answer: inactive

Question: With DNGLGRRWARAKYKECRKAR as the substance, how does the amyloid nucleation score read?
Answer: 0.141 ± 0.27

Question: Which amyloid nucleation score does the source give for DNGVLQNNWVIMYCELHHGV here?
Answer: 5.691 ± 0.052

Question: Which amyloid nucleation score does the source give for DNLNYEMHVLWMCNL here?
Answer: 4.82 ± 0.056

Question: For DNNTVITIEQC, which amyloid nucleation score is on record?
Answer: 0.286 ± 1

Question: With DNRLVSSGMRRGHSGWIGGT as the substance, how does the amyloid nucleation score read?
Answer: 0.505 ± 0.71

Question: With DNRVLVPRRAFNDHIWCMYV as the substance, how does the amyloid nucleation score read?
Answer: -0.23 ± 0.61

Question: For DNTHSSFIHFETGKKYYA, which amyloid nucleation score is on record?
Answer: 0.319 ± 0.78

Question: Which amyloid nucleation score does the source give for DPAYEQGGLFEVGTIHCNIK here?
Answer: 0.527 ± 0.46

Question: Which amyloid nucleation score does the source give for DPDHGPFQNNVWQRRPRWSH here?
Answer: 0.124 ± 0.47

Question: For DPTTPYDISGIWLRLEVRAD, which amyloid nucleation score is on record?
Answer: -0.175 ± 0.46

Question: For DPVTDVFG, which amyloid nucleation score is on record?
Answer: -0.541 ± 0.36

Question: With DQITYVPIMNQMMWATLLTF as the substance, how does the amyloid nucleation score read?
Answer: 0.849 ± 0.59

Question: Which amyloid nucleation score does the source give for DQRVDR here?
Answer: 0.107 ± 0.89

Question: For DRLGDHLKDILVKFYNV, which amyloid nucleation score is on record?
Answer: 0.294 ± 0.99

Question: Which amyloid nucleation score does the source give for DRLMFRYSIRRIRFVSESSP here?
Answer: 1.41 ± 0.43

Question: With DRLSAT as the substance, how does the amyloid nucleation score read?
Answer: 0.272 ± 1.2

Question: For DRRFRIITHLANSLIWNKWQ, which amyloid nucleation score is on record?
Answer: 0.076 ± 0.49

Question: With DRRKAPGLMNAMD as the substance, how does the amyloid nucleation score read?
Answer: 0.737 ± 0.97

Question: For DRTTNVEYWLGAEMLSSRTV, which amyloid nucleation score is on record?
Answer: -0.469 ± 0.78

Question: For DRVCILEQLDRSRGATVCAR, which amyloid nucleation score is on record?
Answer: 1.24 ± 0.76

Question: For DRWRSL, which amyloid nucleation score is on record?
Answer: -0.582 ± 0.96

Question: Which amyloid nucleation score does the source give for DSEQGRLIYICFRVTTIRAL here?
Answer: -0.062 ± 0.36

Question: Which amyloid nucleation score does the source give for DSGDEGVIVSVSHGWTSEGL here?
Answer: 0.443 ± 0.81

Question: Which amyloid nucleation score does the source give for DSGSHRGW here?
Answer: 0.289 ± 0.28

Question: With DSIMNGR as the substance, how does the amyloid nucleation score read?
Answer: 0.713 ± 0.74

Question: For DSINCCMMCYEK, which amyloid nucleation score is on record?
Answer: 7.567 ± 0.071

Question: With DSLSNLCDFCSSK as the substance, how does the amyloid nucleation score read?
Answer: 0.668 ± 0.5

Question: For DSRRGYPMMSMMWW, which amyloid nucleation score is on record?
Answer: -0.354 ± 0.39

Question: For DSRVLSDYLSSYLSLKYLLV, which amyloid nucleation score is on record?
Answer: -0.031 ± 0.62

Question: With DSSWTWKDVV as the substance, how does the amyloid nucleation score read?
Answer: 0.397 ± 1.2

Question: Which amyloid nucleation score does the source give for DSVLQDTLIMWCSMKTVSPS here?
Answer: -0.075 ± 0.29

Question: Which amyloid nucleation score does the source give for DSYCLRMPIGSCIDWWGKGV here?
Answer: -0.058 ± 0.61

Question: With DSYDLY as the substance, how does the amyloid nucleation score read?
Answer: inactive

Question: For DSYILRGNSVLGGGTFSVIR, which amyloid nucleation score is on record?
Answer: 0.062 ± 0.53

Question: Which amyloid nucleation score does the source give for DSYSLSN here?
Answer: -0.179 ± 0.27
